For one assay, the target named is T1, IL-11 protein (UniProt P20809 22-199, limits assumed).
T1 construct: also called IL-11 antigen
T1 sequence (looked up): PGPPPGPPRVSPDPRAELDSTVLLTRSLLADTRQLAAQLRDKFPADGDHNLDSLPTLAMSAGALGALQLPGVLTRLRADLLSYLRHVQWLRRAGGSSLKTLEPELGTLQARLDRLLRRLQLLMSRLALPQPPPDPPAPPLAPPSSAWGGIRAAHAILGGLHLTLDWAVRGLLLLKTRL
Briefly: ELISA, monoclonal hybridoma supernatant on IL-11. The text has this: Cell lines with high secretion of specific antibody were selected for expanded culture and cryopreservation.

Assay [1] concerns the target T2, recombinant IL-11 (LSBio, LS-G132887-10) (UniProt P20809 22-199).
T2 construct: also called IL-11 cytokine
T2 sequence (looked up): T1 sequence (looked up)
Briefly: ELISA, cytokine coated. (In general: ELISA stands for enzyme-linked immunosorbent assay.)

The target in assay [2] is T3, recombinant IL-27 (R&D systems, 2526-IL-010) (UniProt Q8NEV9 29-243; Q14213 21-229).
T3 sequence (looked up) 1: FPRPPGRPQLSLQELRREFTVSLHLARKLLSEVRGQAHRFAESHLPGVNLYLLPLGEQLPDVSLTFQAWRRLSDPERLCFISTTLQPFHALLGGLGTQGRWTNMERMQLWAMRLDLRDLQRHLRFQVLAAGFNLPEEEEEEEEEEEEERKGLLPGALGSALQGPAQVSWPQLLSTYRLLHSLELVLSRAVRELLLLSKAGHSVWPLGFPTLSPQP
T3 sequence (looked up) 2: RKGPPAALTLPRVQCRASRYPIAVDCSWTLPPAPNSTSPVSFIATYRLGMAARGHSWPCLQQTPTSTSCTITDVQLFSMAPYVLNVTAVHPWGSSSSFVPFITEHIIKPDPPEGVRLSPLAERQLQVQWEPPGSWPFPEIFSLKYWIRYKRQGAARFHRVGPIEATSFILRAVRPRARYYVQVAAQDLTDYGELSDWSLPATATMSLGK
Nature of the assay: ELISA, cytokine coated.

The target in assay [3] is T4, recombinant CLC (R&D systems, 962-CL-050) (UniProt Q9UBD9 28-225).
T4 sequence (looked up): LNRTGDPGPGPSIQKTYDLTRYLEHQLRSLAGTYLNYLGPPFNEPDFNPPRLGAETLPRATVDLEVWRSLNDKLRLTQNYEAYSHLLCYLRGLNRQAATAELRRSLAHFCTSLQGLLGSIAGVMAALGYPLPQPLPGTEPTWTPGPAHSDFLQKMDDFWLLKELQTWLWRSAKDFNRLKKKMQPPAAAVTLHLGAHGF
Nature of the assay: ELISA, cytokine coated.

Assay [4] concerns the target T5, recombinant CNTF (R&D systems, 257-NT-010) (UniProt P26441 2-200).
T5 sequence (looked up): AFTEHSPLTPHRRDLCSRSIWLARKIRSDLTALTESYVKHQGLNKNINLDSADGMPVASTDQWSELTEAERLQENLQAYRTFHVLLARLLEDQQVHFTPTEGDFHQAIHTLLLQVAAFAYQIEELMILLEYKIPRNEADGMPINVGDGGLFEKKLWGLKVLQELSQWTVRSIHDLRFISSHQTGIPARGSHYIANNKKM
Nature of the assay: ELISA, cytokine coated.

Assay [5] concerns the target recombinant LIF (Peprotech, 300-05) (UniProt P15018 23-202). Nature of the assay: ELISA, cytokine coated.
Assay [6] deals with T6, recombinant CT-1 (R&D systems, 612-CD-010) (UniProt Q16619 2-201, limits assumed).
T6 sequence (looked up): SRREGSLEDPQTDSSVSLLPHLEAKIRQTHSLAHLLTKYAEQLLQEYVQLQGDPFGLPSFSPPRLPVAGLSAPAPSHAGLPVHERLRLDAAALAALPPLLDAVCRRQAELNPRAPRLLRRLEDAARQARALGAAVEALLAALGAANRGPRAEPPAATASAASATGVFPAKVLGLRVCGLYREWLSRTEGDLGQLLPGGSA
Nature of the assay: ELISA, cytokine coated.

Assay [7] has as its target T7, recombinant OSM (Genscript-z03132) (UniProt P13725 26-234, limits assumed).
T7 sequence (looked up): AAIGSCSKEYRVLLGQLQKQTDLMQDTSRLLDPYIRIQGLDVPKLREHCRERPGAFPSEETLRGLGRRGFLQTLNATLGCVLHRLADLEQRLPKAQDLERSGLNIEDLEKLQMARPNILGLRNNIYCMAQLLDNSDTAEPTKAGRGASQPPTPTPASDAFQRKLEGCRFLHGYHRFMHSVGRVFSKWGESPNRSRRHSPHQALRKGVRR
Nature of the assay: ELISA, cytokine coated.

The target of assay [8] is T3, recombinant IL-27 (R&D systems, …). Briefly: ELISA, cytokine coated. This is another data set of the same source.
For assay [9], the target named is T8, recombinant IL-31 (Peprotech, 200-31) (UniProt Q6EBC2 24-164).
T8 sequence (looked up): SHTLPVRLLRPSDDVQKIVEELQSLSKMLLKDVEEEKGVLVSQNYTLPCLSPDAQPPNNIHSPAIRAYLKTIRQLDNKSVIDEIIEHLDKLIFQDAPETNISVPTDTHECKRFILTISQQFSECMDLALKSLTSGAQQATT
Nature of the assay: ELISA, cytokine coated.

In assay [10] the target is recombinant IL-6 (Sinobiological-10395-HNAE) (UniProt P05231 30-212). Briefly: ELISA, cytokine coated.
Assay [11] addresses T4, recombinant CLC (R&D systems, …). Nature of the assay: ELISA, cytokine coated. The source holds these as a separate data set.

Chain of recombinant LIF (Peprotech, 300-05) (P15018 23-202 limits assumed): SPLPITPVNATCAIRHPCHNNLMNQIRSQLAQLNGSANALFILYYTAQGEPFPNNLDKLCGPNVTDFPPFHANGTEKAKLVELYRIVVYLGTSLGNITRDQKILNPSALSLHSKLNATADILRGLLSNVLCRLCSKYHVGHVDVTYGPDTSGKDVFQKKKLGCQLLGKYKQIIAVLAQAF

B1: 5-20E11-5F2 (antibody, human IgG1, kappa, V domains shown)
VH: QVQLQQSGAELVRPGTSAKISCKASDYTFTNYWLGWLKQRPGHGLEWIGHIYPGGGYTNYNEKFKGKATLTADTSSSTAYMQLSSLTSEDSAVYFCARVRSGNDALDFWGQGTSVTVSS
VL: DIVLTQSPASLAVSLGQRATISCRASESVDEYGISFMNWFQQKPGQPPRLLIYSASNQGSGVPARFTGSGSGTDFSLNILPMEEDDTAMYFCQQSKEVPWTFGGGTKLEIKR
notes: also called 5-20E11-5F2 antibody; 5-20E11-5F2 mAb
In the case of B1, the OD450 in the assay with IL-11 protein amounted to 1.6. Also, the values for the OD450 nm in [1], in assay [2] and in assay [3] were 1.93, 0.048 and 0.033, respectively. For the same molecule, the binding result in [4], in assay [5], in assay [6], in assay [7], in [8] and in assay [9] was “no binding” each time. For the same molecule, the binding result in assay [10] and in [11] was “no binding” in each case.
